From patent US20120263745A1 (DUKE UNIVERSITY, published 2012) come the findings set out here.

The target in data set [1] is T1, Recombinant Chlamydial Protease-like Activity Factor (CPAF), his-tagged, expressed in E. coli BL21 (DE3) from … (C. trachomatis, UniProt O84866 17-234; O84866 276-601).
T1 sequence 1: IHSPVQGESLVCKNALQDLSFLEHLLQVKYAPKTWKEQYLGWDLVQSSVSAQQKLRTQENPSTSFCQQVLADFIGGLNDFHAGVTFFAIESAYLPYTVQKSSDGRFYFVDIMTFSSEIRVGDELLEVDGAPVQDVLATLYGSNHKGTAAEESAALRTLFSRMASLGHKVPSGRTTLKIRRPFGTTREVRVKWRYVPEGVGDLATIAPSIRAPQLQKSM
T1 sequence 2: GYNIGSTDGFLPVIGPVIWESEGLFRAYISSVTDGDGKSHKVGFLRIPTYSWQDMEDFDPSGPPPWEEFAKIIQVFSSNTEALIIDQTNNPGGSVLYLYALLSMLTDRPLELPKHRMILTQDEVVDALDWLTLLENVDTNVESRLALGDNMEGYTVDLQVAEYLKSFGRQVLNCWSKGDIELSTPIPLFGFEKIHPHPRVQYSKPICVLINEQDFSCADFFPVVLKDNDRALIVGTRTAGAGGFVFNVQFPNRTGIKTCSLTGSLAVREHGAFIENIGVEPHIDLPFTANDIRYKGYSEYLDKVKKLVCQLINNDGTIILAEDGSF
In words: cell-based or functional assay.

Data set [2] addresses Endogenous Tarp from EB lysates.
The target of data set [3] is Endogenous Ct288 from EB lysates.
The target in data set [4] is T2, Abz-tagged model CPAF substrate Abz-V-R-L-R-S-S-V-P-G-V-NH2 (SEQ ID NO:9), derived from human vimentin.
T2 chain: VRLRSSVPGV

Data set [5] deals with T3, Peptide of SEQ ID NO:7 (CPAF inhibitory segment plus nine C-terminal arginines) (not fully specified).
T3 chain: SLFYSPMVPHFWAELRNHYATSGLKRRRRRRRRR

Data set [6] deals with Recombinant Ct584, T3S needle component.
Data set [7] has as its target Recombinant CdsQ, type-III secretion (T3S) core component.
Data set [8] addresses Recombinant Mcsc, T3S chaperone.
The target in data set [9] is T4, Sequence-scrambled control peptide H-NFALSHFRLPLSTYKEMPYVSHWAGRRRRRRRRR-NH2 (SEQ ID NO:11).
T4 chain: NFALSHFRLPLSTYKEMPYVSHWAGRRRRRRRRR

For data set [10], the target named is Endogenous Ct694 from EB lysates.

Where no end group is shown, it is not given here.

Turning to SLFYSPMVPHFWAELRNHYATSGLK (not fully specified (C-terminus)) [Peptide of SEQ ID NO:2 (CPAF inhibitory segment, SLFYSPMVPHFWAELRNHYATSGLK)], the “IC50, inhibition of CPAF cleavage of the Abz-tagged model substrate SEQ ID NO:9 (HPLC-based assay, 62.5 nM CPAF, 0.5 mM substrate)” value in data set [1] is 1600 nM.

B1: Recombinant Chlamydial Protease-like Activity Factor (CPAF), his-tagged, expressed in E. coli BL21 (DE3) from pET30b-CPAF (protein)
chain 1: IHSPVQGESLVCKNALQDLSFLEHLLQVKYAPKTWKEQYLGWDLVQSSVSAQQKLRTQENPSTSFCQQVLADFIGGLNDFHAGVTFFAIESAYLPYTVQKSSDGRFYFVDIMTFSSEIRVGDELLEVDGAPVQDVLATLYGSNHKGTAAEESAALRTLFSRMASLGHKVPSGRTTLKIRRPFGTTREVRVKWRYVPEGVGDLATIAPSIRAPQLQKSM
chain 2: GYNIGSTDGFLPVIGPVIWESEGLFRAYISSVTDGDGKSHKVGFLRIPTYSWQDMEDFDPSGPPPWEEFAKIIQVFSSNTEALIIDQTNNPGGSVLYLYALLSMLTDRPLELPKHRMILTQDEVVDALDWLTLLENVDTNVESRLALGDNMEGYTVDLQVAEYLKSFGRQVLNCWSKGDIELSTPIPLFGFEKIHPHPRVQYSKPICVLINEQDFSCADFFPVVLKDNDRALIVGTRTAGAGGFVFNVQFPNRTGIKTCSLTGSLAVREHGAFIENIGVEPHIDLPFTANDIRYKGYSEYLDKVKKLVCQLINNDGTIILAEDGSF
Take B1: the “incubation of EB lysates with recombinant CPAF, immunoblot (FIG. 7)” value in [2] is “specifically degraded”; in data set [3], “Ct694, TARP and Ct288 were cleaved”; in data set [10], “specifically degraded”. In data set [4], the “KM of CPAF proteolysis of the model substrate (HPLC-based assay)” value was “KM=0.88 mM”. Further, the “kcat of CPAF proteolysis of the model substrate (HPLC-based assay)” value in data set [4] was “kcat=13.2 5^-1”. For the same molecule, the “kcat/KM of CPAF proteolysis of the model substrate (HPLC-based assay)” value in data set [4] is given as “kcat/KM=1.5×10^4 M^-1s^-1”. The “CPAF cleavage of GST-chlamydial substrates in vitro (SDS-PAGE, FIG. 8E)” value in data set [5] was “broadly inhibited degradation of CPAF substrates in vitro and in vivo”; in [9], “but not a scrambled sequence of equal molecular weight (SEQ ID NO:11)”. The “incubation with recombinant CPAF, immunoblot (FIG. 5B)” value in data set [6], in [7] and in data set [8] was “Recombinant CPAF does not cleave chlamydial proteins that are resistant to processing by cytosols form infected HeLa cells” throughout.
As to SLFYSPMVPHFWAELRNHYATSGLKRRRRRRRRR (not fully specified (C-terminus)) [Peptide of SEQ ID NO:7 (CPAF inhibitory segment plus nine C-terminal arginines)], in [1], the “IC50, inhibition of CPAF cleavage of the Abz-tagged model substrate SEQ ID NO:9 (HPLC-based assay, 62.5 nM CPAF, 0.5 mM substrate)” value turned out to be 50 nM; the “IC50, inhibition of CPAF cleavage of the Abz/3-nitrotyrosine model substrate SEQ ID NO:10 (FRET-based assay, 62.5 nM CPAF)” value was 30 nM; the “fold greater inhibition than SEQ ID NO:2 (HPLC-based assay)” value is around 30 fold; the “fold greater inhibition than lactacystin (HPLC-based assay)” value was around 200 fold.
